Earlier results in patent US20150050259A1, “NUTRACEUTICAL MODULATORS OF STEM CELL ACTIVITY” (Creative Medical Health Inc., priority 2011, published 2015).

Experiments:
[1] = patients after intensive chemotherapy
[2] = acute stroke patients
[3] = 114 patients, 56 treated and 58 control
[4] = stroke patients
[5] = 2.5, 5, or 10 μg/kg G-CSF for 5 consecutive days
[6] = between baseline and 12-month follow-up

Molecule | abnormal growth or acromegaly after treatment [1] | recovery of platelets to 25×10(9)/l, median time ([1]; P=0.03 versus placebo) [days] | increase in the leukocyte count [2, 5] | mobilization of CD34(+) cells [2, 5] | G-CSF toxicity in neuroradiological and neuropsychological follow-up [2] | influence on infarct size, left ventricular function, or coronary restenosis [3] | BI: change in the mean group score [4, 6] [%] | EMS: change in the mean group score [4, 6] [%] | ESS: change in the mean group score [4, 6] [%] | NIHSS: change in the mean group score [4, 6] [%] | adverse effects as a result of treatment [4] | increase of CD34s over normal (subcutaneous G-CSF) [fold] | safety of administration (subcutaneous G-CSF 10 μg/kg for 6 days, revascularized STEMI patients)
GH: growth hormone, a 191-amino acid, single chain polypeptide hormone naturally produced by the anterior pituitary | no abnormal growth or acromegaly was observed | 16 | – | – | – | – | – | – | – | – | – | – | –
G-CSF: Granulocyte colony stimulating factor, cytokine drug used for neutropenia and mobilization of hematopoietic stem cells (protein, UniProt P09919 31-207, looked up) Granulocyte …: TPLGPASSLPQSFLLKCLEQVRKIQGDGAALQEKLVSECATYKLCHPEELVLLGHSLGIPWAPLSSCPSQALQLAGCLSQLHSGLFLYQGLLQALEGISPELGPTLDTLQLDVADFATTIWQQMEELGMAPALQPTQGAMPAFASAFQRRAGGVLVASHLQSFLEVSYRVLRHLAQP | – | – | up to 75,500 /μl | Mobilization of CD34(+) cells was observed | did not disclose any specific G-CSF toxicity | no influence on infarct size, left ventricular function, or coronary restenosis | 120 | 106 | 33 | 59 | no serious adverse effects | 20 | safe
